The text below walks through data of paper PMC8091585.

In assay [1] the target is Pyruvate:ferredoxin oxidoreductase PFOR1 of Thermoanaerobacter kivui (Thermoanaerobacter kivui). The assay is described as follows: SEC; analytical size exclusion chromatography on a calibrated Superdex 200 column, buffer E (50 mM Tris/HCl, 150 mM NaCl, 20 mM MgSO4, 2 mM DTE, 4 µM resazurin, 20% glycerol, pH 7.5), size standards ovalbumin, albumin, catalase, ferritin.
Assay [2] has the same target.

The molecule “Pyruvate:ferredoxin oxidoreductase PFOR1 of Thermoanaerobacter kivui (enzyme)” came in with a stoichiometry N in assay [1] of 2.

B1: Ferredoxin isolated from Clostridium pasteurianum (natural protein)
chain: MAYKIADSCVSCGACASECPVNAISQGDSIFVIDADTCIDCGNCANVCPVGAPVQE
As for B1, the Km for Fd of the pyruvate-dependent Fd reduction by purified PFOR1 (enzyme activity, 66 °C, pH 7.5, Fd 0-50 µM) in assay [2] turned out to be 19.1 µM.
